Molecular target: Myeloid-associated differentiation marker (human) (human (endogenous in blood eosinophils of asthmatic volunteers)) (UniProt Q96S97)
Chain of UniProt Q96S97 (Q96S97 whole entry): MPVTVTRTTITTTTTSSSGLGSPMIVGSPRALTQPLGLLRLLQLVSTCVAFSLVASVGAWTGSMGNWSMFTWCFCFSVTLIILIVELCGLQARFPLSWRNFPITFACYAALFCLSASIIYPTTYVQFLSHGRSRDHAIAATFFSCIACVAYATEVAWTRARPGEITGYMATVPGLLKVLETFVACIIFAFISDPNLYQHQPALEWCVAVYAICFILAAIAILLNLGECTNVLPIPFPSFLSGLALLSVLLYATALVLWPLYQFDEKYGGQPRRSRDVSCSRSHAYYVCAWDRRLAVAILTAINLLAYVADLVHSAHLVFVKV

“Surfactant protein A (SP-A), preparation genotyped as homozygous for Q (Q/Q) at position 223 of SP-A2 (from UniProt Q8IWL2 21-248; Q8IWL1 21-248) (complex)” gave a percent change in apoptotic human eosinophils (Siglec-8+, Annexin V/PI, flow cytometry, 16 h with SP-A) with pre-treatment using anti-MYADM (Invitrogen PA1-41578) compared to SP-A only of 22.5%.
